What all share (test): SPR, KD relative to WT C2;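 further: biacore SPR at 37 °C, anti-C2 mAbs captured via immobilised goat anti-human IgG, C2 alanine or serine surface mutants as analytes, 1:1 model fitted, double-referenced sensograms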
One assay deals with T1, human C2 A444S (human, UniProt P06681 21-752).
T1 sequence: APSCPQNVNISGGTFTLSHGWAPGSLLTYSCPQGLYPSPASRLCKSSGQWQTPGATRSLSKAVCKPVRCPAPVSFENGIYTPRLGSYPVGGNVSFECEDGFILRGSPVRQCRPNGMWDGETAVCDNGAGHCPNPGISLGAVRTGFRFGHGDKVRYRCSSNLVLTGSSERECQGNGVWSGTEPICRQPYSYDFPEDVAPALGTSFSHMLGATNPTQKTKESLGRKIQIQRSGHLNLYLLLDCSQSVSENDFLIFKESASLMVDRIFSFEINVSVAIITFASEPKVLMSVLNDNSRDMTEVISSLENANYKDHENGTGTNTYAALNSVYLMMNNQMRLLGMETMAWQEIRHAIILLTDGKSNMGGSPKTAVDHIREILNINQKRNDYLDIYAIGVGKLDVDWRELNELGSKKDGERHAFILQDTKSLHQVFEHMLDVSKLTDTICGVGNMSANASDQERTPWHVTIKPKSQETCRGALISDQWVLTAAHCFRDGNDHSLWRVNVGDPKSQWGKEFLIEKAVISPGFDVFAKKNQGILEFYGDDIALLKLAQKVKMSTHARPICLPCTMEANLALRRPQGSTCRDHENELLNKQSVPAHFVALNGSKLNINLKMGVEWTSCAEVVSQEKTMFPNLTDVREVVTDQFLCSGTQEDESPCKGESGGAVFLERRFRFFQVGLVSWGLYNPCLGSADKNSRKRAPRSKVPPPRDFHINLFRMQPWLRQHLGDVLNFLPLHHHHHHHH

A further assay deals with T2, human C2 R714A (human, UniProt P06681 21-752).
T2 sequence: T1 sequence with S424A, R694A

The next assay concerns the target T3, human C2 K487A (human, UniProt P06681 21-752).
T3 sequence: T1 sequence with S424A, K467A

In another assay the target is T4, human C2 Y702A (human, UniProt P06681 21-752).
T4 sequence: T1 sequence with S424A, Y682A

Where a chain is given by its changes, count along the chain named.

B1: RF16-226 (antibody, human IgG4 S228P, lambda)
heavy: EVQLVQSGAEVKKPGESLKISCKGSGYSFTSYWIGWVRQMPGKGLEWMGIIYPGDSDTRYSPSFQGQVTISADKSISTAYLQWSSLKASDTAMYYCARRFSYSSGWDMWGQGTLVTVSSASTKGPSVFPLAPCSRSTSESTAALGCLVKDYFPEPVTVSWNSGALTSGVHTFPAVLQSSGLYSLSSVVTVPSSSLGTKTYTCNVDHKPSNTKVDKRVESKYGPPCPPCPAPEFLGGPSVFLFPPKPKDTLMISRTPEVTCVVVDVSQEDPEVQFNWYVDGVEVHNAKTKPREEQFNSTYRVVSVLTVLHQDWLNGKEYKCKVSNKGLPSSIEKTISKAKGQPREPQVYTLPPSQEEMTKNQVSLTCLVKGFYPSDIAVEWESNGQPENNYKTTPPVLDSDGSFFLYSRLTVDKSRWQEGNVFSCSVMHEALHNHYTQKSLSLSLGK
light: SYELTQPPSVSVSPGQTARITCSGDALTSKYVAWYQQKSGLAPLLVIYEDTRRPSGIPAKFSGSSSGSVATLTISGAHGDDEADYYCYSTDASGHQRVFGGGTKLTVLSQPKAAPSVTLFPPSSEELQANKATLVCLISDFYPGAVTVAWKADGSPVKAGVETTKPSKQSNNKYAASSYLSLTPEQWKSHRSYSCQVTHEGSTVEKTVAPTECS
notes: pH-dependent anti-C2 antibody from a phage display library; also called WT
Take B1: the Fold diff with human C2 A444S is 2 fold; with human C2 R714A, 5 fold; with human C2 K487A, 9 fold; in the assay with human C2 Y702A, 11 fold.

Source of the values: patent publication US20220332804A1 (CSL INNOVATION, published 2022).
